# Laboratory results: US20100068215A1 (published 2010)
# Positions count from the first letter of the chain named. Numbers in names are those of the source.
# T1: Activin A (UniProt P08476 311-426)
# T1 sequence (looked up): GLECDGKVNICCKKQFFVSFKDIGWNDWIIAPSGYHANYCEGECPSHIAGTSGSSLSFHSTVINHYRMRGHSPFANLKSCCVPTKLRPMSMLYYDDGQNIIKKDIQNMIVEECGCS
# T2: Activin B (UniProt P09529 293-407)
# T2 sequence (looked up): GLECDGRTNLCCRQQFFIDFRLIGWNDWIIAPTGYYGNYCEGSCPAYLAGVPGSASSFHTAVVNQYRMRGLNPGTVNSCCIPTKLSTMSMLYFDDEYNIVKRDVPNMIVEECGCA
# T3: GDF8 (UniProt O14793 267-375)
# T3 construct: also called myostatin; Growth and Differentiation Factor-8
# T3 sequence (looked up): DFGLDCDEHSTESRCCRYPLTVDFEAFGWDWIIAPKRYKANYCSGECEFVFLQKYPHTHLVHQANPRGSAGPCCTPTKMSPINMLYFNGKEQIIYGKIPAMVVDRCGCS
# B1: ActRIIB(24-131)-hFc (Fc fusion, not shown: a dimerising Fc or GST)
# chain: AETRECIYYNANWELERTNQSGLERCEGEQDKRLHCYASWRNSSGTIELVKKGCWLDDFNCYDRQECVATEENPQVYFCCCEGNFCNERFTHLPEAGGPEVTYEPPPTGGG
# B2: ActRIIB(20-134)-hFc (Fc fusion)
# chain: GRGEAETRECIYYNANWELERTNQSGLERCEGEQDKRLHCYASWRNSSGTIELVKKGCWLDDFNCYDRQECVATEENPQVYFCCCEGNFCNERFTHLPEAGGPEVTYEPPPTAPTGGGTHTCPPCPAPELLGGPSVFLFPPKPKDTLMISRTPEVTCVVVDVSHEDPEVKFNWYVDGVEVHNAKTKPREEQYNSTYRVVSVLTVLHQDWLNGKEYKCKVSNKALPVPIEKTISKAKGQPREPQVYTLPPSREEMTKNQVSLTCLVKGFYPSDIAVEWESNGQPENNYKTTPPVLDSDGSFFLYSKLTVDKSRWQQGNVFSCSVMHEALHNHYTQKSLSLSPGK
# B3: ActRIIB(23-131)-hFc (Fc fusion, not shown: a dimerising Fc or GST)
# chain: EAETRECIYYNANWELERTNQSGLERCEGEQDKRLHCYASWRNSSGTIELVKKGCWLDDFNCYDRQECVATEENPQVYFCCCEGNFCNERFTHLPEAGGPEVTYEPPPTGGG
# B4: ActRIIB(22-131)-hFc (Fc fusion, not shown: a dimerising Fc or GST)
# chain: GEAETRECIYYNANWELERTNQSGLERCEGEQDKRLHCYASWRNSSGTIELVKKGCWLDDFNCYDRQECVATEENPQVYFCCCEGNFCNERFTHLPEAGGPEVTYEPPPTGGG
# B5: ActRIIB(20-132)-hFc (Fc fusion, not shown: a dimerising Fc or GST)
# chain: GRGEAETRECIYYNANWELERTNQSGLERCEGEQDKRLHCYASWRNSSGTIELVKKGCWLDDFNCYDRQECVATEENPQVYFCCCEGNFCNERFTHLPEAGGPEVTYEPPPTAGGG
# B6: ActRIIB(20-128)-hFc (Fc fusion, not shown: a dimerising Fc or GST)
# chain: GRGEAETRECIYYNANWELERTNQSGLERCEGEQDKRLHCYASWRNSSGTIELVKKGCWLDDFNCYDRQECVATEENPQVYFCCCEGNFCNERFTHLPEAGGPEVTYEPGGG
# B7: ActRIIB(20-131)-hFc (Fc fusion, not shown: a dimerising Fc or GST)
# chain: GRGEAETRECIYYNANWELERTNQSGLERCEGEQDKRLHCYASWRNSSGTIELVKKGCWLDDFNCYDRQECVATEENPQVYFCCCEGNFCNERFTHLPEAGGPEVTYEPPPTGGG
# B8: ActRIIB(21-131)-hFc (Fc fusion, not shown: a dimerising Fc or GST)
# chain: RGEAETRECIYYNANWELERTNQSGLERCEGEQDKRLHCYASWRNSSGTIELVKKGCWLDDFNCYDRQECVATEENPQVYFCCCEGNFCNERFTHLPEAGGPEVTYEPPPTGGG
# B9: ActRIIB(L79 25-131)-hFc (Fc fusion)
# chain: ETRECIYYNANWELERTNQSGLERCEGEQDKRLHCYASWRNSSGTIELVKKGCWLDDFNCYDRQECVATEENPQVYFCCCEGNFCNERFTHLPEAGGPEVTYEPPPTGGG
# notes: also called ActRIIB(25-131)-hFc; not shown: human Fc domain (hFc)
# B10: GDF11 (ligand, UniProt O95390 299-407, looked up)
# chain: NLGLDCDEHSSESRCCRYPLTVDFEAFGWDWIIAPKRYKANYCSGQCEYMFMQKYPHTHLVQQANPRGSAGPCCTPTKMSPINMLYFNDKQQIIYGKIPGMVVDRCGCS
# notes: also called Growth and Differentiation Factor-11; BMP11
# B11: ActRIIB(A24N 20-134)-hFc (Fc fusion)
# chain: GRGENETRECIYYNANWELERTNQSGLERCEGEQDKRLHCYASWRNSSGTIELVKKGCWLDDFNCYDRQECVATEENPQVYFCCCEGNFCNERFTHLPEAGGPEVTYEPPPTAPTGGG
# notes: also called the A24N variant; not shown: human Fc domain (hFc)
# B12: ActRIIB(R64K 20-134)-hFc (Fc fusion)
# chain: B11 chain with N5A, R45K
# notes: not shown: human Fc domain (hFc)
# B13: ActRIIB(R64K 20-129)-hFc (Fc fusion)
# chain: GRGEAETRECIYYNANWELERTNQSGLERCEGEQDKRLHCYASWKNSSGTIELVKKGCWLDDFNCYDRQECVATEENPQVYFCCCEGNFCNERFTHLPEAGGPEVTYEPPGGG
# notes: as for B12
# B14: ActRIIB(P129S, P130R 20-134)-hFc (Fc fusion)
# chain: B11 chain with N5A, P110S, P111R
# notes: kept as two molecules; not shown: human Fc domain (hFc)
# B15: ActRIIB(K74A 20-134)-hFc (Fc fusion)
# chain: B11 chain with N5A, K55A
# notes: as for B12
# Target: B10
# Experiment: cell-based or functional assay
# Details: not given
row,"IC50 (ng/mL), A-204 reporter gene assay, conditioned media [ng/mL]",Binder
1,69,B1
2,45,B2
3,60,B3
4,71,B4
5,87,B5
6,130,B6
7,183,B7
8,121,B8

# Same assay, conditions: record 2
row,"IC50 (ng/mL), A-204 reporter gene assay, conditioned media [ng/mL]",Binder
1,120,B7

# Target: T1, Activin A
# Experiment: cell-based or functional assay
# Details: not given
row,"IC50 (ng/mL), A-204 reporter gene assay, conditioned media [ng/mL]",Binder
1,105,B1
2,22,B2
3,43,B3
4,100,B4
5,32,B5
6,158,B6
7,201,B7
8,325,B8

# Same assay, conditions: record 2
row,"IC50 (ng/mL), A-204 reporter gene assay, conditioned media [ng/mL]",Binder
1,44,B7

# Target: B10
# Experiment: Biacore, steady-state affinity fit
# Details: not given
# Procedure: (§1) The affinity of GDF Traps and other ActRIIB-hFc proteins for several ligands was evaluated in vitro with a Biacore™ instrument. Kd values were obtained by steady-state affinity fit due to the very rapid association and dissociation of the complex, which prevented accurate determination of kₒₙ and koff.
row,Kd [nM],Binder
1,0.036,B2

# Target: T1, Activin A
# Experiment: Biacore, steady-state affinity fit
# Details: not given
# Procedure: as §1
row,Kd [nM],Binder
1,0.016,B2
2,0.018,B9

# Target: T2, Activin B
# Experiment: Biacore, steady-state affinity fit
# Details: not given
# Procedure: as §1
row,Kd [nM],Binder
1,0.012,B2
2,0.012,B9

# Target: B9
# Experiment: Biacore, steady-state affinity fit
# Details: not given
# Procedure: as §1
row,Kd [nM],Binder
1,0.031,B10

# Target: B10
# Experiment: Biacore; ActRIIB-Fc captured by anti-hFc antibody, ligand injected
# Details: not given
# Procedure: (§2) Binding of certain ActRIIB-Fc proteins and GDF Traps to ligands was tested in a BiaCore™ assay.
# (§3) The ActRIIB-Fc variants or wild-type protein were captured onto the system using an anti-hFc antibody. Ligands were injected and flowed over the captured receptor proteins.
Kd [nM],koff [s⁻¹],Binder
0.0842,0.000113,B2
0.0519,6.35e-05,B11
0.0356,2.41e-05,B12

# Target: T3, GDF8
# Experiment: as above
# Details: not given
# Procedure: as §2, §3
Kd [nM],koff [s⁻¹],Binder
2.15,0.000209,B13
0.0935,3.45e-05,B2
0.21,4.71e-05,B12
1.67,0.00018,B14
0.0718,2.03e-05,B15

# Target: T1, Activin A
# Experiment: as above
# Details: not given
# Procedure: as §2, §3
Kd [nM],koff [s⁻¹],kon [M⁻¹ s⁻¹],Binder
0.0841,0.000628,7.46e+06,B13
0.0268,0.000159,5.94e+06,B2
0.104,0.000346,3.34e+06,B11
0.0476,0.000325,6.82e+06,B12
0.0831,0.000417,5.02e+06,B14
